Assay results published in US20190025332A1 (Novo Nordisk, published 2019).

T1: hARTN (human, UniProt Q5T4W7 108-220)
T1 sequence (looked up): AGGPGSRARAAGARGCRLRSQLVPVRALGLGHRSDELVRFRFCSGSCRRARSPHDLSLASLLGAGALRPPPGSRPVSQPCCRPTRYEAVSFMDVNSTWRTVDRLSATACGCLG

T2: hPSPN (human, UniProt O60542 61-156, limits assumed)
T2 sequence (looked up): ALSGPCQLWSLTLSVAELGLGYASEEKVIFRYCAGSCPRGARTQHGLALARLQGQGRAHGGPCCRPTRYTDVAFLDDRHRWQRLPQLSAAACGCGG

T3: hGDNF (human, UniProt P39905 78-211)
T3 sequence (looked up): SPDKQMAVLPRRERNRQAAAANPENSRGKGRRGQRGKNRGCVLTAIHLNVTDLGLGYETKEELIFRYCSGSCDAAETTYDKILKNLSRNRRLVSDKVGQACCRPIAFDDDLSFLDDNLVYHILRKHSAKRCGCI

T4: hNRTN (human, UniProt Q99748 96-197)
T4 sequence (looked up): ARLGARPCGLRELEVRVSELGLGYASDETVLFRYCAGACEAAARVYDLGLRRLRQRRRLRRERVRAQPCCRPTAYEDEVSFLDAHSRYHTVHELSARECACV

B1: wild type human MIC-1 (ligand)
chain: ARNGDHCPLGPGRCCRLHTVRASLEDLGWADWVLSPREVQVTMCIGACPSQFRAANMHAQIKTSLHRLKPDTVPAPCCVPASYNPMVLIQKTDTGVSLQTYDDLLAKDCHCI
notes: also called wtMIC-1; hMIC-1
B2: mGFRAL(ECR)-Fab-HPC4 (receptor)
chain: QTNDCAHLIQKCLIDANGCEQSWRSMEDTCLTPGDSCKINNSLHCNLSIQALVEKNFQFKECLCMDDLHCTVNKLFGKKCTNKTDNMEKDNKDKWNLTTTPFYHGFKQMQSCLEVTEACVGDVVCNAQLALYLKACSANGNLCDVKHCQAAIRFFYQNMPFNTAQMLAFCDCAQSDIPCQQSKETLHSKPCALNIVPPPTCLSVIHTCRNDELCRTHYRTFQTECWPHITGKCHEDETCISMLGKQDLTCSGSESCRAAFLGTFGTVLQVPCACRGVTQAEEHVCMIFQHMLHSKSCFNYPTPNVKDISSYEKKNSKEITLTGFNSFFNGGGGSGGGGSDVVMTQTPLSLPVSLGDQASISCRSSQSLLHSNGNTYLHWYLQKPGQSPKLLIYKVSNRFSGVPDRFSGSGSGTDFTLKISRVEAEDLGVYFCSQSTHVPWTFGGGTKLEIKRADAAPTVSIFPPSSEQLTSGGASVVCFLNNFYPKDINVKWKIDGSERQNGVLNSWTDQDSKDSTYSMSSTLTLTKDEYERHNSYTCEATHKTSTSPIVKSFNRNEC
heavy: EVQIQESGPSLVKPSQTLSLTCSVSGDSITSGYWNWIRKFPGHKIEYMGTISYSGDTYYNPSLKSRISITRDTSKNQYYLHLNSVTTEDTATYYCARYGSYVFDYWGQGTTLTVSSAKTTPPSVYPLAPGSAAQTNSMVTLGCLVKGYFPEPVTVTWNSGSLSSGVHTFPAVLQSDLYTLSSSVTVPSSTWPSETVTCNVAHPASSTKVDKKIVPRDCGGGGSEDQVDPRLIDGK
notes: Soluble fusion of the mouse GFRAL (isoform 1) extracellular region with an anti-TNP Fab; also called mGFRA(ECR)L-Fab-HPC4

Legend:
VISTA-Fc [1] = biological target: T5, VISTA-Fc; test: SPR; analyte 37 nM over immobilised VISTA-Fc (Ctrl-Fc)
T5 construct: Negative control ligand immobilised on the chip; also called Ctrl-Fc
Procedure: (§1) hRet and complex of hGFRAL and MIC-1 interactions were assessed by SPR-based binding assay. A Biacore® 4000 (GE Healthcare, Piscataway, N.J., USA) instrument was used. The assays were performed at 25° C. at flow rates of 30 μL/minute in 1× HBS-P running buffer (BR-1006-71, GE Healthcare, Piscataway, N.J., USA). hRet(ECR)-Fc was immobilized through Fc as ligand on the chip. VISTA-Fc was immobilized as negative control ligand. The complex of MIC-1 and hGFRAL was prepared by pre-incubating wtMIC-1 with hGFRAL(ECR)-His. wtMIC-1, hGFRAL(ECR)-His, complex of wtMIC-1 and Ctrl-His, and complex of wtMIC-1 and hGFRAL(ECR)-His at various concentration were run as flow-through analyte.
(§2) Thus, it can be concluded that that hRet binds to hGFRAL in the presence of MIC-1; and Ret, MIC-1 and GFRAL forms a ternary complex.

[2] = biological target: T6, full length hGFRAL and full length hRET51 co-expressed on cells (human, UniProt Q6UXV0 19-394; P07949 29-1114); test: cell-based or functional assay
T6 sequence (P07949 29-1114, one chain of several): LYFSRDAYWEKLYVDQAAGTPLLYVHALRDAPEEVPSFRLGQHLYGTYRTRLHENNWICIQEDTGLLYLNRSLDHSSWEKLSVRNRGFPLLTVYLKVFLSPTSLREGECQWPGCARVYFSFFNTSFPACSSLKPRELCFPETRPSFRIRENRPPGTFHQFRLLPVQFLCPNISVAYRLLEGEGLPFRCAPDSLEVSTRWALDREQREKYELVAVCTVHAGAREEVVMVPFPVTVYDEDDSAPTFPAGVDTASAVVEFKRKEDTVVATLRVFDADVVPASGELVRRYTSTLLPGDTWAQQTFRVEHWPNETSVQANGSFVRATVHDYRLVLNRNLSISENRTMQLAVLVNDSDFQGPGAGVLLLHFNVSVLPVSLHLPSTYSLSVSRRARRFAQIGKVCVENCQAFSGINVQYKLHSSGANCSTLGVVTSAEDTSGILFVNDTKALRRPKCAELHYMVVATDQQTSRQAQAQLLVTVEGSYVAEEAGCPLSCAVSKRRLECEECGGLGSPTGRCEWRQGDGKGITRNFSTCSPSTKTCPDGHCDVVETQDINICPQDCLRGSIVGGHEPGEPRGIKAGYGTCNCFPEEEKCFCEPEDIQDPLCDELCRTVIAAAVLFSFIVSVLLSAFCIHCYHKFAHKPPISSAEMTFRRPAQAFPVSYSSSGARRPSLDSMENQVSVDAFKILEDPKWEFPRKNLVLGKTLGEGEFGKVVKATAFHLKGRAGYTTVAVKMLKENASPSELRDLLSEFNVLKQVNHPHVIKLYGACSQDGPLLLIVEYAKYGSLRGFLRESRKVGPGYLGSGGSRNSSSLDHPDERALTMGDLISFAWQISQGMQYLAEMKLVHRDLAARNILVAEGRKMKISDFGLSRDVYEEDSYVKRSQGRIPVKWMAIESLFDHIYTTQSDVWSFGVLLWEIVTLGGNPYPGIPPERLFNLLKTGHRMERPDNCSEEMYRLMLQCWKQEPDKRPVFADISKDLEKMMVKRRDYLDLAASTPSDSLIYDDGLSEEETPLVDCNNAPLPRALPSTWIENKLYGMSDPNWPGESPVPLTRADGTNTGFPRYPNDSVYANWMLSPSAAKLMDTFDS

[3] = biological target: full length hGFRAL and full length hRET9 co-expressed on HEK293 cells (human, UniProt Q6UXV0 19-394; P07949 29-1063); test: cell-based or functional assay
Sequence of full length hGFRAL and full length hRET9 co-expressed on HEK293 cells (P07949 other isoform, or with tags, fused parts or gaps limits assumed): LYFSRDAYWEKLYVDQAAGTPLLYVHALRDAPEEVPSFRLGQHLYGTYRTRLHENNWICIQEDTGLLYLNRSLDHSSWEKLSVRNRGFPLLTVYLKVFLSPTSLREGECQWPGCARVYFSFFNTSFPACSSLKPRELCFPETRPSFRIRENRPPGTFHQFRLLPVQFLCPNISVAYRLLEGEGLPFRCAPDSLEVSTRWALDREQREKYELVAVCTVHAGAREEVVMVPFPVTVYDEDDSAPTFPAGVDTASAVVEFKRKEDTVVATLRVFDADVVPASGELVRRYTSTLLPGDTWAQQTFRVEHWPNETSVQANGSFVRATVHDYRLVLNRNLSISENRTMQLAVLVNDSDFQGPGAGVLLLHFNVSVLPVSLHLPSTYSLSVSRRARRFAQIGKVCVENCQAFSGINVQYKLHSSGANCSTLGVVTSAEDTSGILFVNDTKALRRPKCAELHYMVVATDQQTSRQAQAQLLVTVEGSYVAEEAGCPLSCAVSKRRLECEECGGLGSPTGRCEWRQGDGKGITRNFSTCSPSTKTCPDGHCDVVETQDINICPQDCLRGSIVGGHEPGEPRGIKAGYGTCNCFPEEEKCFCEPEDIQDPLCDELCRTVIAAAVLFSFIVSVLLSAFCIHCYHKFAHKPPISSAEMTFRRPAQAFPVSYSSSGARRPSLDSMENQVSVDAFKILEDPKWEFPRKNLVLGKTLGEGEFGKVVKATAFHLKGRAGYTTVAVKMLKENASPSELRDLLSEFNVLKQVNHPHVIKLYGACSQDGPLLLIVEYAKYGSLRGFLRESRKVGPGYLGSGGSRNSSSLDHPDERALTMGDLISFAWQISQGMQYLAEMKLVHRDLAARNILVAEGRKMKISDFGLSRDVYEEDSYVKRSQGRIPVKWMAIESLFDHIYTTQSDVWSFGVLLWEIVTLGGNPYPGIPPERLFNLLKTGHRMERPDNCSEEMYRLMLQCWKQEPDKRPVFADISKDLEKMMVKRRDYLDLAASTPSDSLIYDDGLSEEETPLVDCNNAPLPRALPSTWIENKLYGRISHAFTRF

[4] = biological target: full length hGFRAL and full length hRET43 co-expressed on HEK293 cells (human, UniProt Q6UXV0 19-394; P07949 29-1062); test: cell-based or functional assay
Sequence of full length hGFRAL and full length hRET43 co-expressed on HEK293 cells (P07949 other isoform, or with tags, fused parts or gaps limits assumed): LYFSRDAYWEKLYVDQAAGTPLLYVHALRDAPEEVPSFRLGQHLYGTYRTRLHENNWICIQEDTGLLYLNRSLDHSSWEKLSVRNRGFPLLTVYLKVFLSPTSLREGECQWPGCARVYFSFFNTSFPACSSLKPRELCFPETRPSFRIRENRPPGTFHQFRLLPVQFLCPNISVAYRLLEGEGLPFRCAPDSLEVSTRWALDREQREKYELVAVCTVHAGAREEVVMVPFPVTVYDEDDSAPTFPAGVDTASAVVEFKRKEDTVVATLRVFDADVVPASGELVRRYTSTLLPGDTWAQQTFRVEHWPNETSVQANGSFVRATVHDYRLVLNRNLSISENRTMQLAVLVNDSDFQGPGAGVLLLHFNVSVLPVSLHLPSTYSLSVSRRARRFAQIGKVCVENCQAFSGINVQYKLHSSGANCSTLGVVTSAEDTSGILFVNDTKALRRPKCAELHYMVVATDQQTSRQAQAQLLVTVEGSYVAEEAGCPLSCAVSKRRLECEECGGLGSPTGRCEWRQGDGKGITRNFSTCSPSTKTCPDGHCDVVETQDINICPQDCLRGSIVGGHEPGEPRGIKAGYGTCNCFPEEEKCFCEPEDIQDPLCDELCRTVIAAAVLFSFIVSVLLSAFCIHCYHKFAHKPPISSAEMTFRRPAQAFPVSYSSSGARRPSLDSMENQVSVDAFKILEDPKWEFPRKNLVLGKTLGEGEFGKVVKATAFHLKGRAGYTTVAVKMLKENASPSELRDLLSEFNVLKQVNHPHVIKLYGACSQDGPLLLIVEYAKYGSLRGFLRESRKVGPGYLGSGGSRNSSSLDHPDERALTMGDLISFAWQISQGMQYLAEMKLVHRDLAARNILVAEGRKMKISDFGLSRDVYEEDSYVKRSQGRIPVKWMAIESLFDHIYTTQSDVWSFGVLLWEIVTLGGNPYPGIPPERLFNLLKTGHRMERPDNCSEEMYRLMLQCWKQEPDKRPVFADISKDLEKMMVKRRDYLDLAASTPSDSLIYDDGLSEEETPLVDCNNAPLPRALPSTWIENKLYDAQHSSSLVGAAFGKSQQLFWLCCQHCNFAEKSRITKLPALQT

VISTA-Fc [5] = biological target: T5, VISTA-Fc; test: SPR; analyte 333 nM over immobilised VISTA-Fc (Ctrl-Fc)
Procedure: as §1, §2

hRET(ECR)-hIgG1.1_Fc [6] = biological target: T7, hRET(ECR)-hIgG1.1_Fc (human); test: SPR; analyte 12 nM over immobilised hRet(ECR)-Fc
T7 construct: also called hRET(ECR)-Fc; hRet(ECR)-Fc
T7 sequence (chain, as listed by the source limits assumed): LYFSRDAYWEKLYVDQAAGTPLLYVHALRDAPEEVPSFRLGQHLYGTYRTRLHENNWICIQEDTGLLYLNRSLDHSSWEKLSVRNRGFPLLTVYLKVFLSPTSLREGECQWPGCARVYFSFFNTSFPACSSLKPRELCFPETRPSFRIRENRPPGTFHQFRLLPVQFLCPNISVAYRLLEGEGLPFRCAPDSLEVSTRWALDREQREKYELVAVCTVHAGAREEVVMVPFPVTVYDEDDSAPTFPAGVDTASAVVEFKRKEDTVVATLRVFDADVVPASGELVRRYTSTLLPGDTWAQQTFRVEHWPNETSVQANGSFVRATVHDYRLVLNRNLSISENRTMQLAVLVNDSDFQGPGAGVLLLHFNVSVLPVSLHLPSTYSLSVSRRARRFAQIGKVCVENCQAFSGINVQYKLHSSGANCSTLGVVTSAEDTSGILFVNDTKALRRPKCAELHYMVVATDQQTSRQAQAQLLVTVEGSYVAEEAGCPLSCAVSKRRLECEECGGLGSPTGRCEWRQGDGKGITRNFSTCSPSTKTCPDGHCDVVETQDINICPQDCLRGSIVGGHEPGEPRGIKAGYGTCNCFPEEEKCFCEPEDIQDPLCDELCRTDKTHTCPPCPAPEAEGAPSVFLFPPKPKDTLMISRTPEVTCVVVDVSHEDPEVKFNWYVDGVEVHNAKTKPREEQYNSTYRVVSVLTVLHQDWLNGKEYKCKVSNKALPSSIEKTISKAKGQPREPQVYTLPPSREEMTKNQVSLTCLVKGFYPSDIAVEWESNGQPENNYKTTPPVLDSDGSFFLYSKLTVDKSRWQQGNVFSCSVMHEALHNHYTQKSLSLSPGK
Procedure: as §1, §2

hRET(ECR)-hIgG1.1_Fc [7] = biological target: T7, hRET(ECR)-hIgG1.1_Fc; test: SPR; analyte 111 nM over immobilised hRet(ECR)-Fc
Procedure: as §1, §2

VISTA-Fc [8] = biological target: T5, VISTA-Fc; test: SPR; analyte 111 nM over immobilised VISTA-Fc (Ctrl-Fc)
Procedure: as §1, §2

VISTA-Fc [9] = biological target: T5, VISTA-Fc; test: SPR; analyte 0 nM over immobilised VISTA-Fc (Ctrl-Fc)
Procedure: as §1, §2

VISTA-Fc [10] = biological target: T5, VISTA-Fc; test: SPR; analyte 12 nM over immobilised VISTA-Fc (Ctrl-Fc)
Procedure: as §1

[11] = biological target: T6, full length hGFRAL and full length …; test: cell-based or functional assay; remark: listed apart in the source
hRET(ECR)-hIgG1.1_Fc [12] = biological target: T7, hRET(ECR)-hIgG1.1_Fc; test: SPR; analyte 333 nM over immobilised hRet(ECR)-Fc
Procedure: as §1, §2

VISTA-Fc [13] = biological target: T5, VISTA-Fc; test: SPR; analyte 1000 nM over immobilised VISTA-Fc (Ctrl-Fc)
Procedure: as §1, §2

[14] = biological target: T6, full length hGFRAL and full length …; test: binding to BHK21-hGFRAL-IRES-hRET stable cells, median fluorescence intensity
hRET(ECR)-hIgG1.1_Fc [15] = biological target: T7, hRET(ECR)-hIgG1.1_Fc; test: SPR; analyte 0 nM over immobilised hRet(ECR)-Fc
Procedure: as §1, §2

hRET(ECR)-hIgG1.1_Fc [16] = biological target: T7, hRET(ECR)-hIgG1.1_Fc; test: SPR; analyte 37 nM over immobilised hRet(ECR)-Fc
Procedure: as §1, §2

hRET(ECR)-hIgG1.1_Fc [17] = biological target: T7, hRET(ECR)-hIgG1.1_Fc; test: SPR; analyte 1000 nM over immobilised hRet(ECR)-Fc
Procedure: as §1, §2

wild type human MIC-1 = biological target: B1; test: SPR; ligand as analyte over immobilised mGFRAL(ECR)-Fab-HPC4
From the text: (§3) For SPR-based binding assay, wtMIC-1 as well as hGDNF, hNRTN, hARTN and hPSPN, at various concentrations were run as flow-through analytes. hGFRAL(ECR)-Fab and mGFRAL(ECR)-Fab were immobilized as ligand. […] FCRL2-Fab-HPC4 (Ctrl.-Fab-HPC4) was used as control. Please see FIG. 5 and Table 4.

hARTN = biological target: T1, hARTN; test: as above
From the text: as §3

hPSPN = biological target: T2, hPSPN; test: as above
From the text: as §3

hGDNF = biological target: T3, hGDNF; test: as above
From the text: as §3

hNRTN = biological target: T4, hNRTN; test: as above
From the text: as §3

## B1
VISTA-Fc [1]
  Response (RU): -0.0179 RU
[2]
  pERK1/2 (Evision Unit); HEK293 cells; wtMIC-1 0.001000 nM: 1 Evision Unit
  pERK1/2 (Evision Unit); HEK293 cells; wtMIC-1 0.030483 nM: 1.02 Evision Unit
  pERK1/2 (Evision Unit); HEK293 cells; wtMIC-1 0.091449 nM: 0.969 Evision Unit
  pERK1/2 (Evision Unit); HEK293 cells; wtMIC-1 0.274348 nM: 1.13 Evision Unit
  pERK1/2 (Evision Unit); HEK293 cells; wtMIC-1 0.823045 nM: 1.4 Evision Unit
  pERK1/2 (Evision Unit); HEK293 cells; wtMIC-1 2.469136 nM: 1.69 Evision Unit
  pERK1/2 (Evision Unit); HEK293 cells; wtMIC-1 7.407407 nM: 1.7 Evision Unit
  pERK1/2 (Evision Unit); HEK293 cells; wtMIC-1 22.222220 nM: 1.73 Evision Unit
  pERK1/2 (Evision Unit); HEK293 cells; wtMIC-1 66.666670 nM: 1.74 Evision Unit
[3]
  pERK1/2 (Evision Unit); HEK293 cells; wtMIC-1 0.001000 nM: 1 Evision Unit
  pERK1/2 (Evision Unit); HEK293 cells; wtMIC-1 0.030483 nM: 1.07 Evision Unit
  pERK1/2 (Evision Unit); HEK293 cells; wtMIC-1 0.091449 nM: 0.988 Evision Unit
  pERK1/2 (Evision Unit); HEK293 cells; wtMIC-1 0.274348 nM: 1.07 Evision Unit
  pERK1/2 (Evision Unit); HEK293 cells; wtMIC-1 0.823045 nM: 1.17 Evision Unit
  pERK1/2 (Evision Unit); HEK293 cells; wtMIC-1 2.469136 nM: 1.24 Evision Unit
  pERK1/2 (Evision Unit); HEK293 cells; wtMIC-1 7.407407 nM: 1.3 Evision Unit
  pERK1/2 (Evision Unit); HEK293 cells; wtMIC-1 22.222220 nM: 1.26 Evision Unit
  pERK1/2 (Evision Unit); HEK293 cells; wtMIC-1 66.666670 nM: 1.32 Evision Unit
[4]
  pERK1/2 (Evision Unit); HEK293 cells; wtMIC-1 0.001000 nM: 1 Evision Unit
  pERK1/2 (Evision Unit); HEK293 cells; wtMIC-1 0.030483 nM: 1.03 Evision Unit
  pERK1/2 (Evision Unit); HEK293 cells; wtMIC-1 0.091449 nM: 1.01 Evision Unit
  pERK1/2 (Evision Unit); HEK293 cells; wtMIC-1 0.274348 nM: 1.05 Evision Unit
  pERK1/2 (Evision Unit); HEK293 cells; wtMIC-1 0.823045 nM: 1.09 Evision Unit
  pERK1/2 (Evision Unit); HEK293 cells; wtMIC-1 2.469136 nM: 1.07 Evision Unit
  pERK1/2 (Evision Unit); HEK293 cells; wtMIC-1 7.407407 nM: 1.14 Evision Unit
  pERK1/2 (Evision Unit); HEK293 cells; wtMIC-1 22.222220 nM: 1.11 Evision Unit
  pERK1/2 (Evision Unit); HEK293 cells; wtMIC-1 66.666670 nM: 1.16 Evision Unit
VISTA-Fc [5]
  Response (RU): 0.226 RU
hRET(ECR)-hIgG1.1_Fc [6]
  Response (RU): 0.184 RU
hRET(ECR)-hIgG1.1_Fc [7]
  Response (RU): 0.484 RU
VISTA-Fc [8]
  Response (RU): 0.362 RU
VISTA-Fc [9]
  Response (RU): 0 RU
VISTA-Fc [10]
  Response (RU): -0.245 RU
[11]
  EC50 of ERK1/2 phosphorylation; hGFRAL and hRET51 co-transfected PC12 cells: ~0.2 nM
hRET(ECR)-hIgG1.1_Fc [12]
  Response (RU): 0.88 RU
VISTA-Fc [13]
  Response (RU): -0.515 RU
[14]
  EC50: 1.3 nM
hRET(ECR)-hIgG1.1_Fc [15]
  Response (RU): 0 RU
hRET(ECR)-hIgG1.1_Fc [16]
  Response (RU): 0.467 RU
hRET(ECR)-hIgG1.1_Fc [17]
  Response (RU): 0.527 RU

## B2
Wild type human MIC-1
  binding result: binds
hARTN
  binding result: no binding
hPSPN
  binding result: no binding
hGDNF
  binding result: no binding
hNRTN
  binding result: no binding
